Laboratory results from patent US20200087373A1 (UNIVERSITY OF COPENHAGEN, published 2020).
Ends that are not written are not given here. * marks the point of attachment. C16 diacid = O=C(O)CCCCCCCCCCCCCCC(=O)*

B1: AT301 [hGIP(3-30)NH2[Y10K]-C16diacid/10] (peptide)
peptide: EGTFISDK(C16 diacid)SIAMDKIHQQDFVNWLLAQK-NH2
modifications: N-terminus assumed
SMILES: CC[C@H](C)[C@H](NC(=O)[C@H](CO)NC(=O)[C@H](CCCCNC(=O)CCCCCCCCCCCCCCC(=O)O)NC(=O)[C@H](CC(=O)O)NC(=O)[C@H](CO)NC(=O)[C@@H](NC(=O)[C@H](Cc1ccccc1)NC(=O)[C@@H](NC(=O)CNC(=O)[C@@H](N)CCC(=O)O)[C@@H](C)O)[C@@H](C)CC)C(=O)N[C@@H](C)C(=O)N[C@@H](CCSC)C(=O)N[C@@H](CC(=O)O)C(=O)N[C@@H](CCCCN)C(=O)N[C@H](C(=O)N[C@@H](Cc1c[nH]cn1)C(=O)N[C@@H](CCC(N)=O)C(=O)N[C@@H](CCC(N)=O)C(=O)N[C@@H](CC(=O)O)C(=O)N[C@@H](Cc1ccccc1)C(=O)N[C@H](C(=O)N[C@@H](CC(N)=O)C(=O)N[C@@H](Cc1c[nH]c2ccccc12)C(=O)N[C@@H](CC(C)C)C(=O)N[C@@H](CC(C)C)C(=O)N[C@@H](C)C(=O)N[C@@H](CCC(N)=O)C(=O)N[C@@H](CCCCN)C(N)=O)C(C)C)[C@@H](C)CC
B2: AT298 [hGIP(3-30)NH2[I7K]-C16diacid/7] (peptide)
peptide: EGTFK(C16 diacid)SDYSIAMDKIHQQDFVNWLLAQK-NH2
modifications: N-terminus assumed
SMILES: CC[C@H](C)[C@H](NC(=O)[C@H](CO)NC(=O)[C@H](Cc1ccc(O)cc1)NC(=O)[C@H](CC(=O)O)NC(=O)[C@H](CO)NC(=O)[C@H](CCCCNC(=O)CCCCCCCCCCCCCCC(=O)O)NC(=O)[C@H](Cc1ccccc1)NC(=O)[C@@H](NC(=O)CNC(=O)[C@@H](N)CCC(=O)O)[C@@H](C)O)C(=O)N[C@@H](C)C(=O)N[C@@H](CCSC)C(=O)N[C@@H](CC(=O)O)C(=O)N[C@@H](CCCCN)C(=O)N[C@H](C(=O)N[C@@H](Cc1c[nH]cn1)C(=O)N[C@@H](CCC(N)=O)C(=O)N[C@@H](CCC(N)=O)C(=O)N[C@@H](CC(=O)O)C(=O)N[C@@H](Cc1ccccc1)C(=O)N[C@H](C(=O)N[C@@H](CC(N)=O)C(=O)N[C@@H](Cc1c[nH]c2ccccc12)C(=O)N[C@@H](CC(C)C)C(=O)N[C@@H](CC(C)C)C(=O)N[C@@H](C)C(=O)N[C@@H](CCC(N)=O)C(=O)N[C@@H](CCCCN)C(N)=O)C(C)C)[C@@H](C)CC
B3: AT295 [hGIP(3-30)NH2[G4K]-C16diacid/4] (peptide)
peptide: EK(C16 diacid)TFISDYSIAMDKIHQQDFVNWLLAQK-NH2
modifications: N-terminus assumed
SMILES: CC[C@H](C)[C@H](NC(=O)[C@H](CO)NC(=O)[C@H](Cc1ccc(O)cc1)NC(=O)[C@H](CC(=O)O)NC(=O)[C@H](CO)NC(=O)[C@@H](NC(=O)[C@H](Cc1ccccc1)NC(=O)[C@@H](NC(=O)[C@H](CCCCNC(=O)CCCCCCCCCCCCCCC(=O)O)NC(=O)[C@@H](N)CCC(=O)O)[C@@H](C)O)[C@@H](C)CC)C(=O)N[C@@H](C)C(=O)N[C@@H](CCSC)C(=O)N[C@@H](CC(=O)O)C(=O)N[C@@H](CCCCN)C(=O)N[C@H](C(=O)N[C@@H](Cc1c[nH]cn1)C(=O)N[C@@H](CCC(N)=O)C(=O)N[C@@H](CCC(N)=O)C(=O)N[C@@H](CC(=O)O)C(=O)N[C@@H](Cc1ccccc1)C(=O)N[C@H](C(=O)N[C@@H](CC(N)=O)C(=O)N[C@@H](Cc1c[nH]c2ccccc12)C(=O)N[C@@H](CC(C)C)C(=O)N[C@@H](CC(C)C)C(=O)N[C@@H](C)C(=O)N[C@@H](CCC(N)=O)C(=O)N[C@@H](CCCCN)C(N)=O)C(C)C)[C@@H](C)CC
B4: AT296 [hGIP(3-30)NH2[T5K]-C16diacid/5] (peptide)
peptide: EGK(C16 diacid)FISDYSIAMDKIHQQDFVNWLLAQK-NH2
modifications: N-terminus assumed
SMILES: CC[C@H](C)[C@H](NC(=O)[C@H](CO)NC(=O)[C@H](Cc1ccc(O)cc1)NC(=O)[C@H](CC(=O)O)NC(=O)[C@H](CO)NC(=O)[C@@H](NC(=O)[C@H](Cc1ccccc1)NC(=O)[C@H](CCCCNC(=O)CCCCCCCCCCCCCCC(=O)O)NC(=O)CNC(=O)[C@@H](N)CCC(=O)O)[C@@H](C)CC)C(=O)N[C@@H](C)C(=O)N[C@@H](CCSC)C(=O)N[C@@H](CC(=O)O)C(=O)N[C@@H](CCCCN)C(=O)N[C@H](C(=O)N[C@@H](Cc1c[nH]cn1)C(=O)N[C@@H](CCC(N)=O)C(=O)N[C@@H](CCC(N)=O)C(=O)N[C@@H](CC(=O)O)C(=O)N[C@@H](Cc1ccccc1)C(=O)N[C@H](C(=O)N[C@@H](CC(N)=O)C(=O)N[C@@H](Cc1c[nH]c2ccccc12)C(=O)N[C@@H](CC(C)C)C(=O)N[C@@H](CC(C)C)C(=O)N[C@@H](C)C(=O)N[C@@H](CCC(N)=O)C(=O)N[C@@H](CCCCN)C(N)=O)C(C)C)[C@@H](C)CC
B5: AT300 [hGIP(3-30)NH2[D9K]-C16diacid/9] (peptide)
peptide: EGTFISK(C16 diacid)YSIAMDKIHQQDFVNWLLAQK-NH2
modifications: N-terminus assumed
SMILES: CC[C@H](C)[C@H](NC(=O)[C@H](CO)NC(=O)[C@H](Cc1ccc(O)cc1)NC(=O)[C@H](CCCCNC(=O)CCCCCCCCCCCCCCC(=O)O)NC(=O)[C@H](CO)NC(=O)[C@@H](NC(=O)[C@H](Cc1ccccc1)NC(=O)[C@@H](NC(=O)CNC(=O)[C@@H](N)CCC(=O)O)[C@@H](C)O)[C@@H](C)CC)C(=O)N[C@@H](C)C(=O)N[C@@H](CCSC)C(=O)N[C@@H](CC(=O)O)C(=O)N[C@@H](CCCCN)C(=O)N[C@H](C(=O)N[C@@H](Cc1c[nH]cn1)C(=O)N[C@@H](CCC(N)=O)C(=O)N[C@@H](CCC(N)=O)C(=O)N[C@@H](CC(=O)O)C(=O)N[C@@H](Cc1ccccc1)C(=O)N[C@H](C(=O)N[C@@H](CC(N)=O)C(=O)N[C@@H](Cc1c[nH]c2ccccc12)C(=O)N[C@@H](CC(C)C)C(=O)N[C@@H](CC(C)C)C(=O)N[C@@H](C)C(=O)N[C@@H](CCC(N)=O)C(=O)N[C@@H](CCCCN)C(N)=O)C(C)C)[C@@H](C)CC
B6: AT299 [hGIP(3-30)NH2[S8K]-C16diacid/8] (peptide)
peptide: EGTFIK(C16 diacid)DYSIAMDKIHQQDFVNWLLAQK-NH2
modifications: N-terminus assumed
SMILES: CC[C@H](C)[C@H](NC(=O)[C@H](CO)NC(=O)[C@H](Cc1ccc(O)cc1)NC(=O)[C@H](CC(=O)O)NC(=O)[C@H](CCCCNC(=O)CCCCCCCCCCCCCCC(=O)O)NC(=O)[C@@H](NC(=O)[C@H](Cc1ccccc1)NC(=O)[C@@H](NC(=O)CNC(=O)[C@@H](N)CCC(=O)O)[C@@H](C)O)[C@@H](C)CC)C(=O)N[C@@H](C)C(=O)N[C@@H](CCSC)C(=O)N[C@@H](CC(=O)O)C(=O)N[C@@H](CCCCN)C(=O)N[C@H](C(=O)N[C@@H](Cc1c[nH]cn1)C(=O)N[C@@H](CCC(N)=O)C(=O)N[C@@H](CCC(N)=O)C(=O)N[C@@H](CC(=O)O)C(=O)N[C@@H](Cc1ccccc1)C(=O)N[C@H](C(=O)N[C@@H](CC(N)=O)C(=O)N[C@@H](Cc1c[nH]c2ccccc12)C(=O)N[C@@H](CC(C)C)C(=O)N[C@@H](CC(C)C)C(=O)N[C@@H](C)C(=O)N[C@@H](CCC(N)=O)C(=O)N[C@@H](CCCCN)C(N)=O)C(C)C)[C@@H](C)CC
B7: AT297 [hGIP(3-30)NH2[F6K]-C16diacid/6] (peptide)
peptide: EGTKISDYSIAMDKIHQQDFVNWLLAQK
modifications: C16-diacid (1,16-hexadecanedioic acid) on Lys 6 (GIP numbering); C-terminal amide
B8: AT294 [hGIP(3-30)NH2[E3K]-C16diacid/3] (peptide)
peptide: K(C16 diacid)GTFISDYSIAMDKIHQQDFVNWLLAQK-NH2
modifications: N-terminus assumed
SMILES: CC[C@H](C)[C@H](NC(=O)[C@H](CO)NC(=O)[C@H](Cc1ccc(O)cc1)NC(=O)[C@H](CC(=O)O)NC(=O)[C@H](CO)NC(=O)[C@@H](NC(=O)[C@H](Cc1ccccc1)NC(=O)[C@@H](NC(=O)CNC(=O)[C@@H](N)CCCCNC(=O)CCCCCCCCCCCCCCC(=O)O)[C@@H](C)O)[C@@H](C)CC)C(=O)N[C@@H](C)C(=O)N[C@@H](CCSC)C(=O)N[C@@H](CC(=O)O)C(=O)N[C@@H](CCCCN)C(=O)N[C@H](C(=O)N[C@@H](Cc1c[nH]cn1)C(=O)N[C@@H](CCC(N)=O)C(=O)N[C@@H](CCC(N)=O)C(=O)N[C@@H](CC(=O)O)C(=O)N[C@@H](Cc1ccccc1)C(=O)N[C@H](C(=O)N[C@@H](CC(N)=O)C(=O)N[C@@H](Cc1c[nH]c2ccccc12)C(=O)N[C@@H](CC(C)C)C(=O)N[C@@H](CC(C)C)C(=O)N[C@@H](C)C(=O)N[C@@H](CCC(N)=O)C(=O)N[C@@H](CCCCN)C(N)=O)C(C)C)[C@@H](C)CC

The binders below were run against T1, human GIP receptor (human, UniProt P48546 22-466) (assay: cell-based or functional assay).
T1 sequence (looked up): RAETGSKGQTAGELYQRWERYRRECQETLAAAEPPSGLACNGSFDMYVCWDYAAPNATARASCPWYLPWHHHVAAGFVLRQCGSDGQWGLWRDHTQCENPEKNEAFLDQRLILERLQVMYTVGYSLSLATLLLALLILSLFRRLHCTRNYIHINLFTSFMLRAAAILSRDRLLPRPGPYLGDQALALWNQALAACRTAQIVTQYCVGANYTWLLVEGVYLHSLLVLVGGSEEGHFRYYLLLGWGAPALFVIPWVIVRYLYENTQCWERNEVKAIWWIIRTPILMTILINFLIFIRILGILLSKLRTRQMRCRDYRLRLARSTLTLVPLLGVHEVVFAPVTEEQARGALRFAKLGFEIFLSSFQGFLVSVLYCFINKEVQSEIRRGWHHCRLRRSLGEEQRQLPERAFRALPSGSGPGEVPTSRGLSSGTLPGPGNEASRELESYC
In the case of B1, the “cAMP agonism, EC50 (log)” value is reported as -7.9 log M, the “cAMP agonism, Emax” value is reported as 8.5% and the “cAMP agonism, nM (EC50)” value is reported as 12 nM. The “cAMP antagonism, log (IC50)” value was -6.8 log M and the “cAMP antagonism, nM (IC50)” value was 163 nM. With B2 the “cAMP antagonism, log (IC50)” value was -7.5 log M and the “cAMP antagonism, nM (IC50)” value was 33 nM. For B3, the “cAMP agonism, EC50 (log)” value was -8.6 log M, the “cAMP agonism, Emax” value was 78.6% and the “cAMP agonism, nM (EC50)” value was 2.6 nM. The “cAMP antagonism, log (IC50)” value was -8.1 log M and the “cAMP antagonism, nM (IC50)” value was 9.5 nM. With B4 the “cAMP agonism, EC50 (log)” value was -8.6 log M, the “cAMP agonism, Emax” value was 6.7% and the “cAMP agonism, nM (EC50)” value was 2.6 nM. For the same binder, the “cAMP antagonism, log (IC50)” value was -7.8 log M and the “cAMP antagonism, nM (IC50)” value was 14 nM. B5 was tested, and the “cAMP antagonism, log (IC50)” value was -7.7 log M and the “cAMP antagonism, nM (IC50)” value was 22 nM. With B6 the “cAMP agonism, EC50 (log)” value was -7.8 log M, the “cAMP agonism, Emax” value was 15.2% and the “cAMP agonism, nM (EC50)” value was 15 nM. For the same binder, the “cAMP antagonism, log (IC50)” value was -6.7 log M and the “cAMP antagonism, nM (IC50)” value was 199 nM. With B7 the “cAMP agonism, EC50 (log)” value was -7 log M, the “cAMP agonism, Emax” value was 19% and the “cAMP agonism, nM (EC50)” value was 9 nM. For the same binder, the “cAMP antagonism, log (IC50)” value was -6.2 log M and the “cAMP antagonism, nM (IC50)” value was 603 nM. With B8 the “cAMP agonism, EC50 (log)” value was -8.7 log M, the “cAMP agonism, Emax” value was 74% and the “cAMP agonism, nM (EC50)” value was 1.8 nM. The “cAMP antagonism, log (IC50)” value was -8.6 log M and the “cAMP antagonism, nM (IC50)” value was 2.5 nM.
